In publication doi:10.1101/354001:

Legend:
Test in all cases: SEC + other: SDS-PAGE
[1] = molecular target: Δ(185-243) Leu159Arg apoA-I (globular domain, residues 1-184) (human)
[2] = molecular target: Δ(185-243) Phe71Tyr apoA-I (globular domain, residues 1-184) (human)
[3] = molecular target: Δ(185-243) WT apoA-I (globular domain, residues 1-184, of human apolipoprotein A-I) (human)
[4] = molecular target: Δ(185-243) Glu34Lys apoA-I (globular domain, residues 1-184) (human)

Δ(185-243) Leu159Arg apoA-I (globular domain, residues 1-184) (domain or fragment)
stoichiometry N [1]: 2

Δ(185-243) Phe71Tyr apoA-I (globular domain, residues 1-184) (domain or fragment)
stoichiometry N [2]: 2

Δ(185-243) WT apoA-I (globular domain, residues 1-184, of human apolipoprotein A-I) (domain or fragment)
stoichiometry N [3]: 2

Δ(185-243) Glu34Lys apoA-I (globular domain, residues 1-184) (domain or fragment)
stoichiometry N [4]: 2
